Source: patent US20050180949A1 (NUVELO, published 2005)

Target: the molecule itself
Test: non-reducing vs reducing SDS-PAGE of the purified protein, Western blot with HRP-conjugated anti-V5 antibody (self-association / oligomerization)
Method: Purified recombinant full-length hC1Q/TNF7 protein expressed in HEK-293 cells was treated as follows: N=non-reduced only; N+H=non-reduced plus heating at 100° C. for 10 min; R=reduced only; and R+H=reduced plus heating at 100° C. for 10 min.
Studies of C1Q and 1C1Q-related proteins, such as adiponectin (Ad), indicate that most of the proteins form trimer, hexamer and higher molecular weight species (Shapiro and Scherer, Curr. Biol. 8:335-338 (1998) herein incorporated by reference in its entirety). To determine the oligomerization status of the hC1Q/TNF7 protein, the HEK293-expressed full-length hC1Q/TNF7 was treated under various conditions: non-reduced only (N); non-reduced plus heating at 100° C. for 10 min (N+H); reduced only (R); and reduced plus heating at 100° C. for 10 min (R+H). […] After heat treatment under non-reducing conditions, hC1Q/TNF7 migrated in 3 major bands: approximately 40, approximately 80, and approximately 160 kDa (Lane 2). In contrast, when hC1Q/TNF7 was treated under reducing conditions with or without heating, it ran as a single band at approximately 40 kDa (Lanes 3 and 4). Similar results were obtained using hC1Q/TNF7-F1 protein and an N-terminal V5His-tagged version of full-length hC1Q/TNF7 (not shown).

B1: full-length hC1Q/TNF7, carboxy-terminal V5His6-tagged, expressed in HEK-293 cells (ligand)
chain: QPRGNQLKGENYSPRYICSIPGLPGPPGPPGANGSPGPHGRIGLPGRDGRDGRKGEKGEKGTAGLRGKTGPLGLAGEKGDQGETGKKGPIGPEGEKGEVGPIGPPGPKGDRGEQGDPGLPGVCRCGSIVLKSAFSVGITTSYPEERLPIIFNKVLFNEGEHYNPATGKFICAFPGIYYFSYDITLANKHLAIGLVHNGQYRIKTFDANTGNHDVASGSTVIYLQPEDEVWLEIFFTDQNGLFSDPGWADSLFSGFLLYVDTDYLDSISEDDEL
notes: The signal peptide cleavage site is only predicted; Oligomer state as told: dimers, tetramers and higher order oligomers; also called HEK293-expressed full-length hC1Q/TNF7; human C1Q/TNF7; not shown: C-terminal V5His6 tag from the pIntron vector
Q: Does B1 bind?
A: binds
